# Reference: publication PMC10404244
# What was measured:
# [1] = biological target: tyrosinated microtubules polymerized from purified porcine brain tubulin (porcine) (UniProt P02550); assay: single-molecule TIRF microscopy (landing rate, dwell time); tyrosinated and detyrosinated microtubules held in the chamber, single molecules of motors, 2 mM ADP, HP assay buffer pH 7.0
# [2] = biological target: tyrosinated microtubules polymerized from purified porcine brain tubulin (porcine) (UniProt P02550); assay: TIRF microscopy microtubule-binding assay (mean fluorescence intensity); tyrosinated and detyrosinated microtubules held in the same chamber, 2 mM ADP (Fig. 4C: 50 nM motor, 10 min), HP assay buffer pH 7.0
# [3] = biological target: tyrosinated microtubules polymerized from purified porcine brain tubulin (porcine) (UniProt P02550); assay: single-molecule TIRF microscopy (landing rate, processive motility); tyrosinated and detyrosinated microtubules held by biotin-streptavidin in the same chamber, motors at single-molecule concentrations, 2 mM ATP, HP assay buffer pH 7.0
# [4] = biological target: tyrosinated microtubules polymerized from purified porcine brain tubulin (porcine) (UniProt P02550); assay: TIRF microscopy microtubule-binding assay (mean fluorescence intensity); tyrosinated and detyrosinated microtubules held in the same chamber, 2 mM AMP-PNP, HP assay buffer pH 7.0
# [5] = biological target: detyrosinated microtubules: porcine brain tubulin treated with carboxypeptidase A (CPA) (porcine) (UniProt P02550); assay: TIRF microscopy microtubule-binding assay (mean fluorescence intensity); tyrosinated and detyrosinated microtubules held in the same chamber, 2 mM ADP (Fig. 4C: 50 nM motor, 10 min), HP assay buffer pH 7.0
# [6] = biological target: tyrosinated microtubules polymerized from purified porcine brain tubulin (porcine) (UniProt P02550); assay: TIRF microscopy microtubule-binding assay (titration of fluorescence intensity); apparent; motor titrated 0.1–50 nM on held tyrosinated and detyrosinated microtubules, ADP; n = 160 MTs, N = 2
# [7] = biological target: detyrosinated microtubules: porcine brain tubulin treated with carboxypeptidase A (CPA) (porcine) (UniProt P02550); assay: as above
# human KIF13B CAP-Gly fragment (a.a. 1685–1826), N-terminal sfGFP-StrepII, sequence (Q9NQT8 1685-1826): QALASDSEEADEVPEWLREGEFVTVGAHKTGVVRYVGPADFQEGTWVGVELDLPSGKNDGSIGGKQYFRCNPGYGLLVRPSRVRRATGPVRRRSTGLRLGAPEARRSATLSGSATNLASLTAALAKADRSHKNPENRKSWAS
"fold dwell time, tyrosinated over detyrosinated microtubules (ADP) [1] [fold]","fold landing rate, tyrosinated over detyrosinated microtubules (ADP) [1] [fold]","fold binding (fluorescence intensity), tyrosinated over detyrosinated microtubules, ADP [2] [fold]","fold landing rate, tyrosinated over detyrosinated microtubules (ATP) [3] [fold]","fold binding (fluorescence intensity), tyrosinated over detyrosinated microtubules, AMP-PNP [4] [fold]","fold motor density on microtubules over KIF13B (50 nM, ADP) [2] [fold]","fold motor density on microtubules over KIF13B (50 nM, ADP) [5] [fold]",Kd [6] [nM],Kd [7] [nM],"fold lower dwell time than full-length KIF13B or KIF13B^Δtail (tyrosinated microtubules, ADP) [1] [fold]",Substance
1.3,2,8,2,1.4,–,–,–,–,–,"full-length human KIF13B (wild type), C-terminal sfGFP-StrepII (from UniProt Q9NQT8 1-1826) (natural protein)"
1.5,2,2,2,–,3,11,23.7,72.7,–,"full-length human KIF13B K414A, C-terminal sfGFP-StrepII (from UniProt Q9NQT8 1-1826) (natural protein)"
–,–,–,2,–,–,–,–,–,–,"full-length human KIF13B V178Q, C-terminal sfGFP-StrepII (from UniProt Q9NQT8 1-1826) (natural protein)"
–,14,–,–,–,–,–,–,–,2 to 3,"human KIF13B CAP-Gly fragment (a.a. 1685–1826), N-terminal sfGFP-StrepII (from UniProt Q9NQT8 1685-1826) (domain or fragment)"
